Measured values: US7192728B2, “Screening assays for agents that alter inhibitor of apoptosis (IAP) protein regulation of caspase activity” (The Burnham Institute, priority 1997, dated 2007)
“Also recorded” adds a separate entry of the source. Where a SMILES comes first, the peptide text is derived from it. The star is where a group is joined. Cbz = O=C(OCc1ccccc1)*; CH2F = FC*

T1: caspase-6 (Homo sapiens, UniProt P55212)
T1 construct: Purified active caspase concentrations ranged from 0.1 nM to 10 nM; His6; made in house; host or cells: E. coli BL21(DE3)pLysS
T1 sequence (P55212 24-179 limits assumed): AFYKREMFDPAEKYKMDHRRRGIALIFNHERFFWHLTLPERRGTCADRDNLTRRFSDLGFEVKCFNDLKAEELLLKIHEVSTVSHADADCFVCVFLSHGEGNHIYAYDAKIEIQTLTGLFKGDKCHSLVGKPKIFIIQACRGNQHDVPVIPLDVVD
T1 sequence (P55212 194-293 limits assumed): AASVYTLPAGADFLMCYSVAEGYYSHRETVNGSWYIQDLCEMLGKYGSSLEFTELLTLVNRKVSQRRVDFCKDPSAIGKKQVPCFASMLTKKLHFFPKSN

T2: caspase-3 (Homo sapiens, UniProt P42574)
T2 construct: to produce the 17–20 kDa mature, fully processed large subunit of the active caspase-3 enzyme; a smaller, fully processed, subunit of about 11 kDa; His6; made in house; host or cells: E. coli BL21(DE3)pLysS
T2 sequence (P42574 29-175 limits assumed): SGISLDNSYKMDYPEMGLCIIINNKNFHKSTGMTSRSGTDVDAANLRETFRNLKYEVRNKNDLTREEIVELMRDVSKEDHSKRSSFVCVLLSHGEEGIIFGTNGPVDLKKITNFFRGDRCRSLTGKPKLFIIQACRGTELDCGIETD
T2 sequence (P42574 176-277 limits assumed): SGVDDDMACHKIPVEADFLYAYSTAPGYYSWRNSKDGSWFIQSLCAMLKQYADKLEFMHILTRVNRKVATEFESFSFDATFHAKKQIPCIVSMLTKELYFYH

T3: caspase-7 (Homo sapiens, UniProt P55210)
T3 construct: Purified active caspase concentrations ranged from 0.1 nM to 10 nM; His6; made in house; host or cells: E. coli BL21(DE3)pLysS
T3 sequence (P55210 24-198 limits assumed): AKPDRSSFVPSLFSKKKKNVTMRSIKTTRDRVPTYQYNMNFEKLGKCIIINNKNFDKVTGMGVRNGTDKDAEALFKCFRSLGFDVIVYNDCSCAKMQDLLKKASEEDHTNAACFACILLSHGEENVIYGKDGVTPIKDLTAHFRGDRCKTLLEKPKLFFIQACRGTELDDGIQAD
T3 sequence (P55210 207-303 limits assumed): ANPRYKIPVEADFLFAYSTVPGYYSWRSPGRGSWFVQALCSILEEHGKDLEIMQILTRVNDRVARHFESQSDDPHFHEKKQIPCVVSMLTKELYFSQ


Tests used:
293T cells = assay: Bax-induced apoptosis and caspase activation in transfected 293T cells; type: cell-based, human; settings: 24 hr; Bax alone about 25%; zVAD-fmk 50 μM
Description: N-benzyloxycarbonyl-Val-Ala-Asp fluoromethylketone (zVAD-fmk; 50 μM) (Bachem Calif.; Torrance, Calif.) was added immediately after transfection of the Bax plasmid. Transfection efficiency was uniformly 80–90%, as determined by X-Gal staining following cotransfection with pCMV-βGal.
Cells were maintained in culture for 24 hr, then floating and attached cells were harvested and an aliquot was removed and the percent of dead cells was determined by either trypan blue or propidium iodide (PI) dye exclusion assay. A second aliquot was used to assess the percentage of apoptotic cells with subdiploid DNA content by FACS analysis of PI stained, ethanol fixed cells. The remaining cell pellets were lysed in 10 mM HEPES (pH 7.5), 142 mM KCl, 1 mM EGTA, 1 mM DTT, 0.2% NP-40, 0.1 mM PMSF and used for immunoblot analysis or for protease assays.

[1] = system: DEVD-pNA hydrolysis activity in Jurkat T cell cytosolic extracts; assay: Cytochrome c/dATP-induced caspase activation (DEVD-pNA hydrolysis) in Jurkat T cell cytosolic extracts; type: biochemical; settings: for DEVD-pNA hydrolysis, ΔA405 after 15 min: untreated ≈0.02; for DEVD-pNA hydrolysis, ΔA405 after 20 min: untreated ≈0.025
Description: (§1) Cells were washed with ice cold buffer A (20 mM Hepes (pH 7.5), 10 mM KCl, 1.5 mM MgCl2, 1 mM EDTA, 1 mM DTT and 0.1 mM PMSF) and suspended in 1 vol buffer A, then incubated on ice for 20 min. 293 cells were disrupted by passage 15× through a 26 gauge needle and Jurkat T cells were disrupted by dounce homogenization in 2 ml using 15 strokes with a pestle B. Cell extracts (10–15 mg total protein/ml) were clarified by centrifugation at 16,000×g for 30 min, then the NaCl concentration was increased by 50 mM. Cytosolic fractions were used immediately or stored frozen at −80° C.
(§2) Caspase activity was assayed by release of either 7-amino-4-trifluoromethyl-coumarin (AFC) or p-nitroanilide (pNA) from benzylyoxycarbonyl-DEVD (SEQ ID NO: 2) or benzylyoxycarbonyl-YVAD (SEQ ID NO: 3) synthetic peptides using a Molecular Devices Spectromax 340 for AFC labeled peptides or Perkin/Elmer LS50B for pNA labeled peptides (see Example II; see, also, Zhou et al., supra, 1997). Cytosolic extracts from 293 cells or Jurkat T cells were used directly (negative control) or were treated with 1 μM cytochrome c and 1 mM dATP or with cytochrome c, dATP and 0.2 μM GST-XIAP. Additional control reactions were performed by substituting 2 μM GST-Bcl-2, GST-Bax, GST-NM23 or GST-CD40 cytosolic domain, or 5 μM His6-S5a protein for GST-XIAP. DEVD-pNA hydrolysis was measured at various times and multiple experiments were performed using several different GST-XIAP preparations.

[2] = system: HeLa cell nuclei in cytosolic extract; assay: Apoptosis of isolated nuclei in cell-free system (cytochrome c/dATP); settings: 0.4 μM protein with 10 μM cytochrome c and 1 mM dATP; 37° C., 60 min; baseline about 15%, cytochrome c/dATP alone >95%
Description: as §1
Isolated nuclei were prepared from HeLa cells (Martin et al., supra, 1995). Approximately 5×10^4 to 1×10^5 nuclei were added to 20 μl cytosolic extract and apoptosis was initiated by adding 10 μM horse heart cytochrome c (Sigma, Inc.; St. Louis Mo.) and 1 mM dATP, alone (positive control) or with cytochrome c, dATP and either 0.4 μM GST-XIAP or 0.4 μM GST-Bcl-2. Following incubation at 37° C. for 60 min., nuclei were stained with 1 μg/ml of acridine orange and ethidium bromide and the percentage nuclei with apoptotic features, including extremely condensed chromatin and the genesis of fragmentation of nuclei, was determined.

[3] = system: DEVD-pNA hydrolysis activity in 293 cell cytosolic extracts; assay: Cytochrome c/dATP-induced caspase activation (DEVD hydrolysis) in 293 cell cytosolic extracts; type: biochemical, human; settings: for DEVD-pNA hydrolysis, ΔA405 after 15 min: 293 extracts + cytochrome c/dATP, GST-XIAP 0.2 μM, GST controls 2 μM, His6-S5a 5 μM, untreated ≈0.01
Description: as §1, §2

caspase-6 = molecular target: T1, caspase-6; assay: GST pull-down binding to caspase-6; settings: glutathione-Sepharose beads, immunoblot
caspase-3 [4] = molecular target: T2, caspase-3; assay: GST pull-down binding to caspase-3; settings: glutathione-Sepharose beads, immunoblot
Description: (§3) Following incubation at 4° C. for 60 min, the beads were removed by centrifugation and washed twice with 100 vol 50 mM Tris (pH 7.5), 150 mM KCl, 2 mM DTT and 0.025% Triton-X100, then subjected to SDS-PAGE and immunoblot assay (see Example I.B.3).

caspase-7 [5] = molecular target: T3, caspase-7; assay: GST pull-down binding to caspase-7; settings: glutathione-Sepharose beads, immunoblot
Description: as §3

caspase-3 [6] = molecular target: T2, caspase-3; assay: Inhibition of purified recombinant caspase-3, DEVD substrate hydrolysis and progress curves; type: biochemical; settings: DEVD-pNA hydrolysis
Description: Purified recombinant caspase-1, caspase-3, caspase-6, caspase-7 or caspase-8 were incubated with DEVD-pNA, either alone or with a 10-fold to 50-fold molar excess of GST-XIAP ([…]) and substrate hydrolysis was measured. Purified active caspase concentrations ranged from 0.1 nM to 10 nM. XIAP concentration ranged from 0.1 nM to 500 nM. Assays were performed in caspase buffer (50 mM Tris, pH 7.4, 100 mM NaCl, 10% sucrose, 5–10 mM DTT, 1 mM EDTA and 0.1% CHAPS).
Equilibria were determined from progress curves when substrate hydrolysis reached a steady-state; slopes were calculated by curve fit analysis using the cricket graph program. Experiments were performed using purified recombinant caspase-3, caspase-6, or caspase-7. DEVD-AFC hydrolysis was measured using 0.1 nM caspase and a range of concentrations (0.2 to 12 μM) of recombinant XIAP (rXIAP). […] Average ratio velocities (vi/vo, where “vi” indicates presence of GST-XIAP and “vo” indicates absence of GST-XIAP) were determined.
Caspase activity was determined essentially as described in Example II, using the benzylyoxycarbonyl-DEVD-AFC (SEQ ID NO: 2) substrate and was assayed at 37° C. using the Perkin-Elmer LS50B fluorometric plate reader in the kinetic mode with excitation and emission wavelengths of 400 nm and 505 nm, respectively. […] Reactions were performed in caspase buffer (50 mM Hepes, 100 mM NaCl, 1 mM EDTA, 0.1% CHAPS, 10% sucrose, 5 mM DTT). The inhibition constant, Ki, was calculated as described (Zhou et al., supra, 1997). Immunoblot analysis was performed as described in Example I.B.3.

caspase-7 [7] = molecular target: T3, caspase-7; assay: Inhibition of purified recombinant caspase-7, DEVD substrate hydrolysis and progress curves; type: biochemical; settings: DEVD-pNA hydrolysis
Description: Purified recombinant caspase-1, caspase-3, caspase-6, caspase-7 or caspase-8 were incubated with DEVD-pNA, either alone or with a 10-fold to 50-fold molar excess of GST-XIAP (20 μM) and substrate hydrolysis was measured. Purified active caspase concentrations ranged from 0.1 nM to 10 nM. XIAP concentration ranged from 0.1 nM to 500 nM. Assays were performed in caspase buffer (50 mM Tris, pH 7.4, 100 mM NaCl, 10% sucrose, 5–10 mM DTT, 1 mM EDTA and 0.1% CHAPS).

Molecule	apoptotic cells (PI staining) in Bax expressing cells (293T cells)	DEVD-pNA hydrolysis, ΔA405 after 15 min [1]	DEVD-pNA hydrolysis, ΔA405 after 20 min [1]	apoptotic nuclei [2]	DEVD-pNA hydrolysis, ΔA405 after 15 min [3]	binding of caspase-6 (in words) (caspase-6)	binding of caspase-3 (in words) (caspase-3 [4])	binding of caspase-7 (in words) (caspase-7 [5])	inhibition of caspase-3 in vitro (in words) (caspase-3 [6])	inhibition of caspase-7 in vitro (in words) (caspase-7 [7])	DEVD hydrolysis in activated 293 cell cytosolic extracts (in words) ([3]; 3 μM, extracts activated 30 min with cytochrome c and dATP)
CC(C)[C@H](NC(=O)OCc1ccccc1)C(=O)N[C@@H](C)C(=O)N[C@@H](CC(=O)O)C(=O)CF [zVAD-fmk, N-benzyloxycarbonyl-Val-Ala-Asp fluoromethylketone, reference compound] (Cbz-Val-Ala-Asp-CH2F)	about 5%										
GST-Bcl-2: recombinant control protein, GST fusion of Bcl-2 [reference compound]		≈ 0.09	≈ 0.1	greater than 95%	≈ 0.1						
GST-CD40 cytosolic domain: recombinant control protein, GST fusion of CD40 cytosolic domain (protein, not fully specified; also: GST fusion partner not in chain) KKVAKKPTNKAPHPKQEPQEINFPDDLPGSNTAAPVQETLHGCQPVTQEDGKESRISVQERQ		≈ 0.09	≈ 0.1		≈ 0.1	No caspase binding was observed	No caspase binding was observed; also recorded: did not bind	No caspase binding was observed; also recorded: did not bind	had no effect	had no effect	
c-IAP-2(BIR): construct comprising the BIR domains of c-IAP-2 (positions 1 to 335) (protein, left off: a dimerising Fc or GST) MNIVENSIFLSNLMKSANTFELKYDLSCELYRMSTYSTFPAGVPVSERSLARAGFYYTGVNDKVKCFCCGLMLDNWKRGDSPTEKHKKLYPSCRFVQSLNSVNNLEATSQPTFPSSVTNSTHSLLPGTENSGYFRGSYSNSPSNPVNSRANQDFSALMRSSYHCAMNNENARLLTFQTWPLTFLSPTDLAKAGFYYIGPGDRVACFACGGKLSNWEPKDNAMSEHLRHFPKCPFIENQLQDTSRYTVSNLSMQTHAARFKTFFNWPSSVLVNPEQLASAGFYYVGNSDDVKCFCCDGGLRCWESGDDPWVQHAKWFPRCEYLIRIKGQEFIRQVQ							bound	bound			inhibited DEVD hydrolysis
